Measured values: patent publication US20170102393A1

Experiments:
[1] = biological target: integrin β7 (β7 receptor) on cynomolgus monkey peripheral-blood T cells / lymphocytes (cynomolgus monkey (Macaca fascicularis)); test: cell-based or functional assay
[2] = biological target: αEβ7 integrin (Homo sapiens (Human)) (UniProt P38570); test: blocking of E-cadherin binding to αEβ7; assay not described
[3] = biological target: integrin β7 (β7 receptor) on cynomolgus monkey peripheral-blood T cells / lymphocytes (cynomolgus monkey (Macaca fascicularis)); test: β7 receptor occupancy by flow cytometry against serum concentration, dosed cynomolgus monkeys
[4] = biological target: α4β7 integrin (Homo sapiens (Human)) (UniProt P13612); test: blocking of α4β7 interactions with MadCAM-1, VCAM-1 and fibronectin (range told for the three ligands); assay not described

Sequence of UniProt P38570 (P38570 19-1179 limits assumed, form in doubt, chain 1 of 2): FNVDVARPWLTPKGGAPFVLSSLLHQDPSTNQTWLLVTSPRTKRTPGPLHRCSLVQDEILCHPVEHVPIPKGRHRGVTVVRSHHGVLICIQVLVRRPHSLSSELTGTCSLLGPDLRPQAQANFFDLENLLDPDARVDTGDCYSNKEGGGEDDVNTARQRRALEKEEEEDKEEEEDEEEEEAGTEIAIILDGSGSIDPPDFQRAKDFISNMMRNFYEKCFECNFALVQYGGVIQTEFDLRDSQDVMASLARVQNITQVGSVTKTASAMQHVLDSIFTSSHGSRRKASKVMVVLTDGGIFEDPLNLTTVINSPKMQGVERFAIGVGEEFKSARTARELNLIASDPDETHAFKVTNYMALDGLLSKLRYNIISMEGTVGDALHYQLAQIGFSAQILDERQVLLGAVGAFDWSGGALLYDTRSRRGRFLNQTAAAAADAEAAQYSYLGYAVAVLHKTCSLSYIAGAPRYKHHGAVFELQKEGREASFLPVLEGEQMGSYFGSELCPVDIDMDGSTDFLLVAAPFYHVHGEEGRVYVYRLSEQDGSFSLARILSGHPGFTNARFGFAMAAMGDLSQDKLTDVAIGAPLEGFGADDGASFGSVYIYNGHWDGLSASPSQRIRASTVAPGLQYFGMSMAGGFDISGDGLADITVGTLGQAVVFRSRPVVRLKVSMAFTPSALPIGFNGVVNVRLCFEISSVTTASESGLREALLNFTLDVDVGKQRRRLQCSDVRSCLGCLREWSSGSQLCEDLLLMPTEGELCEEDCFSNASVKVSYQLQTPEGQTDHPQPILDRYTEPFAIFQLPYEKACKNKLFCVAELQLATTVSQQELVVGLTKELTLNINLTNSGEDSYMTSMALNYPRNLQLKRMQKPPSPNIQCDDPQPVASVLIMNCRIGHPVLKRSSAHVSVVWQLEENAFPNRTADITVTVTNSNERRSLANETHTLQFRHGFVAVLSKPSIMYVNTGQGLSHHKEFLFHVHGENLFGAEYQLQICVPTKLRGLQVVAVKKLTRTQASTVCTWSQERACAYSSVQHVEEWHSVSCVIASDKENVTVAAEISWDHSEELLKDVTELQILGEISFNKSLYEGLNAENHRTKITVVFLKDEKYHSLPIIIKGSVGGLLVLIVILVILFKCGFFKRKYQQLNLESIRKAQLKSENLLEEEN
Sequence of UniProt P38570 (beta, as listed by the source limits assumed, form in doubt, chain 2 of 2): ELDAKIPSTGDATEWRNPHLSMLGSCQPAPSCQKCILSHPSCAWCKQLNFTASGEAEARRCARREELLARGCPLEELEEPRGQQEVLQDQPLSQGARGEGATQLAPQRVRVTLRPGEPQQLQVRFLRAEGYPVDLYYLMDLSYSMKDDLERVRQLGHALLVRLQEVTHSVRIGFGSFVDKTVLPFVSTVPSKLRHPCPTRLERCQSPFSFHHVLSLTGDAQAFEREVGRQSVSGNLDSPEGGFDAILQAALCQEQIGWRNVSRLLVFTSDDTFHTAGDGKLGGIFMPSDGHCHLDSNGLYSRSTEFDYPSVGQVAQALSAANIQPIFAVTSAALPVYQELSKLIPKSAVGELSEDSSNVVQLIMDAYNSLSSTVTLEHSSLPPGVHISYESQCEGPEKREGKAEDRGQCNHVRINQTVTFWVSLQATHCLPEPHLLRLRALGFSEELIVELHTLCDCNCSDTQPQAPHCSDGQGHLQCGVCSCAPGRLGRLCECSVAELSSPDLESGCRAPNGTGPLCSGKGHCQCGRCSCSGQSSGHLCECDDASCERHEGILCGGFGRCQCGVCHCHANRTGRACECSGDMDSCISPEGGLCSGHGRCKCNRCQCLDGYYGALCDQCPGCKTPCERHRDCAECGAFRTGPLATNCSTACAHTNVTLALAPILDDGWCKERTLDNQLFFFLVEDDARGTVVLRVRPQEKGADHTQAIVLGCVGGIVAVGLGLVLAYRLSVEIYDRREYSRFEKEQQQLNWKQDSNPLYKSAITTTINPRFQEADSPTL

- CD45RA+ β7intermediate T cells in peripheral blood, increase over baseline, four weekly doses of 25 mg/kg, cynomolgus monkeys [1]: 2.5 fold
- CD45RA- β7high T cells in peripheral blood, increase over baseline, four weekly doses of 25 mg/kg, cynomolgus monkeys [1]: 5 fold
- group mean CD45RA- β7high CD4+ lymphocytes in peripheral blood, increase over baseline, 5 mg/kg IV weekly, cynomolgus monkeys [1]: 4 to 5 fold
- group mean CD45RA- β7high CD4+ lymphocytes in peripheral blood, increase over baseline, 15 or 50 mg/kg IV or SC weekly, cynomolgus monkeys [1]: 5 to 6 fold
- IC50 [2]: 5 nM
- serum concentration that maintains complete β7-receptor saturation [3]: 1 to 10 µg/mL
- serum level below which available β7 is detected (desaturation) [3]: 10 µg/mL
- IC50 [4]: 0.07 to 0.1 nM
B1: rhuMAb Beta7, recombinant humanized monoclonal anti-beta7 integrin antibody (antibody, from a related filing, V domains shown)
VH: EVQLVESGGGLVQPGGSLRLSCAASGFFITNNYWGWVRQAPGKGLEWVGYISYSGSTSYNPSLKSRFTISRDTSKNTFYLQMNSLRAEDTAVYYCARTGSSGYFDFWGQGTLVTVSS
VL: DIQMTQSPSSLSASVGDRVTITCRASESVDDLLHWYQQKPGKAPKLLIKYASQSISGVPSRFSGSGSGTDFTLTISSLQPEDFATYYCQQGNSLPNTFGQGTKVEIKR
